Experiments:
crystal structure = target: the molecule itself; test: crystal structure
purified protein [1] = substrate: CC(=O)C(=O)O; test: purified protein; format: biochemical, Sinorhizobium meliloti; details: 0.4 mM NADPH, 150 mM NaCl, 150 mM Tris-HCl pH 7.5, 25 °C
purified protein [2] = substrate: O=C(O)C(=O)Cc1ccccc1; test: purified protein; format: biochemical, Sinorhizobium meliloti; details: 0.4 mM NADPH, 150 mM NaCl, 150 mM Tris-HCl pH 7.5, 25 °C
purified protein [3] = substrate: O=C(O)C(=O)CO; test: purified protein; format: biochemical, Sinorhizobium meliloti; details: 0.4 mM NADPH, 150 mM NaCl, 150 mM Tris-HCl pH 7.5, 25 °C
purified protein [4] = substrate: O=C(O)C(=O)[C@@H](O)[C@H](O)[C@H](O)CO; test: purified protein; format: biochemical, Sinorhizobium meliloti; details: 0.4 mM NADPH, 150 mM NaCl, 150 mM Tris-HCl pH 7.5, 25 °C

Protein | stoichiometry N (crystal structure) | K0.5 (purified protein [1]) [mM] | kcat/Km (purified protein [1]) [M⁻¹ s⁻¹] | K0.5 (purified protein [2]) [mM] | kcat/Km (purified protein [2]) [M⁻¹ s⁻¹] | K0.5 (purified protein [3]) [mM] | kcat/Km (purified protein [3]) [M⁻¹ s⁻¹] | K0.5 (purified protein [4]) [mM] | kcat/Km (purified protein [4]) [M⁻¹ s⁻¹]
SmGhrA, glyoxylate/hydroxypyruvate reductase of subfamily GHRA from Sinorhizobium meliloti 1021 (enzyme, UniProt Q92T34 1-319, looked up) MPAKSPVIVDLKFIPEEVEAALAGAFPGREVIDLADPAHQERDLSGIDYAVVWKSAPDLFSRAPDLKVVFSGGAGVDHVLTLPGLPDVPLVRFVDRTLTTRMSEWVMMQCLLHLRQHRAYEALAKKHEWRDLSQPEAADVTVGIMGMGVLGQDAARKLAAMGFKVIGWSRSKRVIEGVETYDAAGLDAFLGRTDFLVGLLPLTPDTRGIFNAALFAKLSRNGPFGAPVFINAGRGGSQVEADILECLDSGVLGGASLDVFEREPLSPESRFWDMPNVYVTPHVAASSDVRALFVHVEHQIARFESGLPLEHVVDKVAGY | 2 | 9.69 ± 0.80 | 57.3 ± 3.4 | 6.58 ± 0.73 | 267 ± 18 | 9.35 ± 0.86 | 1200 ± 61 |  | 
SmGhrB, glyoxylate/hydroxypyruvate reductase of subfamily GHRB from Sinorhizobium meliloti 1021 (enzyme, UniProt Q92LZ4 1-322, looked up) MSRPRILVPGKINPRVLERLPEMFETVRIERADAALVTADMRDVSGIAVSGKLPVPLMDAFPSLEIVANFGVGYDGVDVSRAAARGIVVTNTPDVLTEEVADTAIGLLLNTLRLLPQAEQWLRQGRWVREGAFPLSPLSLRGRTVGLFGLGRIGLAIARRLEAFGVSIAYHTRTPREGLGFTYHPTLVGMAEAVDTLIVIVPGTASTLKAVNADVLSALGPKGVLINVGRGSTVDEAALVTALQNGTIAGAGLDVFENEPNVPEALLSFPNVSLLPHVASASVVTRNAMSDLVVDNLKAWFSTGEALTPVAETPFRRRAIQN | 2 |  |  | 5.59 ± 0.92 | 372 ± 38 |  |  | 11.0 ± 2.0 | 935 ± 84
